From patent publication US5973116

Biological target: human placental alkaline phosphatase (hPLAP) (human) (UniProt P05187)
Test: ELISA plate with bound antigen, washed with copious amounts of 50 mM DEA

Substance | percent washed off with 50 mM DEA [%]
H17-BSRNase | 40
H17-BSRNaseKDEL | 40
H17-Link-BSRNaseKDEL | 40
single-chain H17E2 antibody (scFv) | > 90
